Earlier results as cited in patent US20040120897A1, “Method for administering insulinotropic peptides” (priority 1998, published 2004).

Details: calculated, background statement

Row | Substance | absorption value after delivery through the lungs
1 | glycosylated α1-antitrypsin: protein cited in the background for its pulmonary absorption value | 48 h
2 | parathyroid hormone (1-34): peptide hormone cited in the background for its pulmonary absorption value | fifteen
